In article PMC4996995:

Target: T1, (His)6-YycF, non-phosphorylated response regulator (Streptococcus pneumoniae TIGR4) (UniProt A0A0H2UQ68)
T1 sequence: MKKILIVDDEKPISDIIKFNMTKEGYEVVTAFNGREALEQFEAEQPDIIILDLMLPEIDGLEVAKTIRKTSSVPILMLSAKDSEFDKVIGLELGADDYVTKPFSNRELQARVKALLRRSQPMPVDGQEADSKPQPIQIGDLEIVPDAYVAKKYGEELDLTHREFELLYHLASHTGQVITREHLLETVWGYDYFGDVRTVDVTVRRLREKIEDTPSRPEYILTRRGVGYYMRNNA
Experiment: EMSA
Details: EMSA: 50 mM Tris-HCl pH 7.8, 500 mM NaCl, 4 mM MgCl2, 20 uL, 0.5-1.0 nM DNA, 0°C 30 min; 5% native PAGE, TBE, 4°C

CATTCGGAGAGAAGAAGACCTAAATTTACAGGAAAATAAAAAATACTTGCATCATTCTTTGAATTTTGATATAATTCTTTCTGTCAAATGTTTTGATTGTAAAAGTTTTTTGAAGAAGGAGGGATATGAAAAATGGACTACCAACGAATCAATGAATATTTAACATCTATATTTAACAATGTCCTTGTAATTGAGG (double strand) [amplicon A (PFabT promoter region)]
binding: binds
